One may read the Kd as the concentration at which binding is half-saturated. Low readings indicate a tighter complex, high ones a looser complex. By EC50 (read off the curve) is commonly meant the concentration at which the effect is half-maximal.

In experiment [1] the target is T1, his-tagged human BCMA protein (ACROBiosystems, catalog # BCA-H522y-100 ug) (human, UniProt Q02223 1-54).
T1 construct: limits of the bought construct are not otherwise stated; also called recombinant his-tagged human BCMA; not shown: his tag of the bought protein
T1 sequence: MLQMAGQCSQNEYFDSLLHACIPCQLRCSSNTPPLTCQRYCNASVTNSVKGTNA
Put plainly: SPR (Biacore T200), antibody captured on anti-human Fc chip, his-tagged human BCMA as analyte. As to the method:
Binding kinetics of anti-BCMA antibodies with his-tagged human BCMA protein (ACROBiosystems, catalog # BCA-H522y-100 ug, UniProt Q02223-1, SEQ ID NO:92) was measured using surface plasmon resonance (SPR). Kinetic interactions between the antibodies and his-tagged BCMA proteins were measured at 25° C. using Biacore T200 surface plasmon resonance (GE Healthcare). Anti-human fragment crystallizable region (Fc region) antibody was immobilized on a CM5 sensor chip to approximately 8000 resonance units (RU) using standard N-hydroxysuccinimide/N-Ethyl-N′-(3-dimethylaminopropyl) carbodiimide hydrochloride (NHS/EDC) coupling methodology. The anti-BCMA antibody (2 μg/mL) was captured for 60 seconds at a flow rate of 10 μL/minute. The his-tagged BCMA protein was run at […] different dilutions of 3.12, 6.25, 12.5, 25, 50, 100 and 200 nM, in a running buffer of 0.01 M HEPES pH 7.4, 0.15 M NaCl, 3 mM EDTA, 0.05% v/v Surfactant P20 (HBS-EP+). The 25 nM BCMA protein run was measured two times. All measurements were conducted in HBS-EP+ buffer with a flow rate of 30 μL/minute. A 1:1 (Langmuir) binding model was used to fit the data. […]
Cross reactivity of two of the anti-BCMA antibodies, BCA7-2C5 and BCA7-2E1, with his-tagged human, cynomolgus or mouse BCMA protein were analyzed by SPR in the manner as described above. […]

Experiment [2] concerns the target T1, his-tagged human BCMA protein …. Put plainly: SPR (Biacore T200), antibody captured on anti-human Fc, his-tagged human BCMA as analyte; fit with ka1/kd1/ka2/kd2 (model not named). The method, then: Binding kinetics of anti-BCMA antibodies with his-tagged human BCMA protein (ACROBiosystems, catalog # BCA-H522y-100 ug, UniProt Q02223-1, SEQ ID NO:92) was measured using surface plasmon resonance (SPR). Kinetic interactions between the antibodies and his-tagged BCMA proteins were measured at 25° C. using Biacore T200 surface plasmon resonance (GE Healthcare). Anti-human fragment crystallizable region (Fc region) antibody was immobilized on a CM5 sensor chip to approximately 8000 resonance units (RU) using standard N-hydroxysuccinimide/N-Ethyl-N′-(3-dimethylaminopropyl) carbodiimide hydrochloride (NHS/EDC) coupling methodology. The anti-BCMA antibody (2 μg/mL) was captured for 60 seconds at a flow rate of 10 μL/minute. The his-tagged BCMA protein was run at […] different dilutions of 3.12, 6.25, 12.5, 25, 50, 100 and 200 nM, in a running buffer of 0.01 M HEPES pH 7.4, 0.15 M NaCl, 3 mM EDTA, 0.05% v/v Surfactant P20 (HBS-EP+). The 25 nM BCMA protein run was measured two times. All measurements were conducted in HBS-EP+ buffer with a flow rate of 30 μL/minute. […] The SPR sensorgrams of anti-BCMA antibodies BCA7, GSK J6M0, BC4C9 and BC5C4 are shown in FIGS. 1, 2, 3 and 4, respectively, and their corresponding binding kinetics are listed in Table 3.
Binding kinetics of optimized anti-BCMA antibodies BCA7-2C5, BCA7-2D11, BCA7-2G2, BCA7-2E1, BCA7-2D8 and BCA7-2E8, with his-tagged human BCMA protein (ACROBiosystems, catalog # BCA-H522y-100 ug), were analyzed in the manner as described above.
In general terms: In SPR one partner is held on a chip, and binding of the other changes the refractive index at the surface.

Experiment [3] addresses T2, BCMA on MM1R cells (human, UniProt Q02223).
T2 construct: full length, on the surface of MM1R multiple myeloma cells; also called MM1R multiple myeloma cell line
T2 sequence (receptor, looked up): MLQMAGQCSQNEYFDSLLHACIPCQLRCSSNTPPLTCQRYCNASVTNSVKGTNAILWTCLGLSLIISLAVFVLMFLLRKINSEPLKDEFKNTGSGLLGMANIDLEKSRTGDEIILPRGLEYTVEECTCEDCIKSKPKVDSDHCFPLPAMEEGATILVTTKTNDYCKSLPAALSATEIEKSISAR
Put plainly: flow cytometry on MM1R cells, 5x serial dilution, FITC goat anti-human IgG F(ab')2, GeoMean BL1-H. The source says:
Flow cytometry was used to test antibody binding to multiple myeloma cell line MM1R, using various anti-BCMA antibodies (5× serial dilution) and 80,000 cells per well. The secondary antibody was FITC AffiniPure FAB2 fragment goat anti-human IgG (H+L) (from Jackson Immuno Research). […] A BL-1 detector (IntelliCyt iQue Screener Plus) which detects at 530 nm was used. The geometric mean is reported.
A general note: Flow cytometry measures light scatter and fluorescence of single cells or particles in a stream.

B1: BCA7-2C5 antibody (antibody, V domains shown)
VH: EVQLVESGGGLVKPGGSLRLSCAASGFTSSTAWMSWVRQAPGKGLEWVGRIKSKSDGGTTDYAAPVKGRFTISRDDSKNTLFLQMNSLKTEDTAVYYCAKGGGTYGYWGQGTTVTVSS
VL: QSALTQPASVSGSPGQSVTISCTGTSSAHGGHYYVSWYQQHPGKAPKLMIYDVSNRPSGVSNRFSGSKSGNTASLTISGLQAEDEADYYCGSYTSSGSYVFGTGTKLTVL
On to B1, for which, in experiment [1], binding was put at a Kd of 19.4 nM. For the same molecule, in experiment [2], the equilibrium dissociation constant (Kd) came out at 19.4 nM, the ka1 amounted to 1.37e+06 M⁻¹ s⁻¹, the ka2 worked out at 0.000847 s⁻¹ and the kd1 came out at 0.0422 s⁻¹. In experiment [2], this molecule came in with a kd2 of 0.00145 s⁻¹. Moreover, the “EC50 (read off the curve)” value in experiment [3] is approximately 0.08 µg/mL.

The values are drawn from patent US20210388097A1 (SORRENTO THERAPEUTICS, published 2021).
